Results on one molecule are retold here after publication PMC12272874, “The common homocystinuria-associated P1173L variant of human methionine synthase impairs reductive methylation” (The Journal of Biological Chemistry, 2025).

Experiment [1] concerns the target T1, Human methionine synthase (MTR), wild-type, full-length recombinant (human, UniProt Q99707 1-1265).
T1 construct: Methionine synthase (MTR), human, full length, 140.5 kDa; codon-optimised synthetic gene in pET-28 between BamH1 and Xho1, thrombin cleavage site at the N-terminus; Monomer fraction of the size exclusion column was used; Loaded with cob(II)alamin (native gel, stopped-flow, EPR) or MeCbl (native gel with substrates); also called wild-type MTR; WT; source: E. coli BL21 (DE3), co-expressed with …
Briefly: native gel or EMSA; 15 μM cob(II)alamin-bound wild-type or P1173L MTR mixed with equimolar MTRR in Buffer C (100 mM HEPES, pH 7.4, 150 mM KCl, 10% glycerol), room temperature 5 min; 4–15% gradient gel, 4 °C. The settings on record: both partners purified. For orientation: Mobility shift assays separate free from complexed probe on a gel.

In experiment [2] the target is T2, P1173L variant of human methionine synthase (MTR), full-length recombinant (human, UniProt Q99707 1-1265, P1173L).
T2 construct: Methionine synthase (MTR), human, full length, clinical missense variant P1173L made from the wild-type pET28-thrombin-MTR construct; Homocystinuria-associated variant that occurs in patients; Same expression and purification as the wild type; Loaded with cob(II)alamin or MeCbl; also called P1173L MTR; P→L; source: E. coli BL21 (DE3), co-expressed with GST-tagged ΔNMMADHC, purified (Ni-NTA, size …)
T2 sequence (Q99707 whole entry P1173L): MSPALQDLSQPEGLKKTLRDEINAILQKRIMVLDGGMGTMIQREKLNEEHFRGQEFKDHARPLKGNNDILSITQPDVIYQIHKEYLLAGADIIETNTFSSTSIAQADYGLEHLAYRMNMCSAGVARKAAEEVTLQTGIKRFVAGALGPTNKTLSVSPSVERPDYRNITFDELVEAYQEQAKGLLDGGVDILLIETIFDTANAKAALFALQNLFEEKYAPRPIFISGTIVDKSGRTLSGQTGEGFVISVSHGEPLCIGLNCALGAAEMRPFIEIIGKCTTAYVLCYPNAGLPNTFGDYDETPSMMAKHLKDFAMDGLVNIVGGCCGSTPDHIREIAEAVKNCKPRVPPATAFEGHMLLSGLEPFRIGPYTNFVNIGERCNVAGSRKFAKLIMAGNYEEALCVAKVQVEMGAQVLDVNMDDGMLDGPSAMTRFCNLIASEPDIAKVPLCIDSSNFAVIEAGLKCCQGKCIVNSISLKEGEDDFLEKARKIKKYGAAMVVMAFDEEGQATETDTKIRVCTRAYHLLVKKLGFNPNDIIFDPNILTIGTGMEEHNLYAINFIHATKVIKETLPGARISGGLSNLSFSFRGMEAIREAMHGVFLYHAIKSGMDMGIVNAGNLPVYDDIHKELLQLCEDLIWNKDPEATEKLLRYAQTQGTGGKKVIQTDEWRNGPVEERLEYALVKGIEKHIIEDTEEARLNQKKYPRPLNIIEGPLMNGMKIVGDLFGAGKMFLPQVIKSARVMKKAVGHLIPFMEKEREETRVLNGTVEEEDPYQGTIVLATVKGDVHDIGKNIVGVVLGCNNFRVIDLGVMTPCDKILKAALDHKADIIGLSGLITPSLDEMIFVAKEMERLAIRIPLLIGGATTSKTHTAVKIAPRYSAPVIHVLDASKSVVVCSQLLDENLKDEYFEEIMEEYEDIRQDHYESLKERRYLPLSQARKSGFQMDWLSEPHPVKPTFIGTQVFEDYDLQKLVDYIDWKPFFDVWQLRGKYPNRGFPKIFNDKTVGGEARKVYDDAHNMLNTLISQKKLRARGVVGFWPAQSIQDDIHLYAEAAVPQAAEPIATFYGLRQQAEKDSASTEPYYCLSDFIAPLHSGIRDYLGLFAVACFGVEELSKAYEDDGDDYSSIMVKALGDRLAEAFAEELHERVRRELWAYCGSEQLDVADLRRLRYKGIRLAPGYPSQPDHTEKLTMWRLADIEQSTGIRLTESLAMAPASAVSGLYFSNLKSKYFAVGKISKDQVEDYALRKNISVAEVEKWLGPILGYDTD
The experiment is described as above. To be noted: both partners purified.

T1 sequence (Q99707 whole entry): as the sequence (Q99707 whole entry P1173L) above, with L1173P counted along it

B1: Human methionine synthase reductase (MTRR), full-length recombinant (enzyme, UniProt Q9UBK8-2 1-698, looked up)
chain: MRRFLLLYATQQGQAKAIAEEICEQAVVHGFSADLHCISESDKYDLKTETAPLVVVVSTTGTGDPPDTARKFVKEIQNQTLPVDFFAHLRYGLLGLGDSEYTYFCNGGKIIDKRLQELGARHFYDTGHADDCVGLELVVEPWIAGLWPALRKHFRSSRGQEEISGALPVASPASSRTDLVKSELLHIESQVELLRFDDSGRKDSEVLKQNAVNSNQSNVVIEDFESSLTRSVPPLSQASLNIPGLPPEYLQVHLQESLGQEESQVSVTSADPVFQVPISKAVQLTTNDAIKTTLLVELDISNTDFSYQPGDAFSVICPNSDSEVQSLLQRLQLEDKREHCVLLKIKADTKKKGATLPQHIPAGCSLQFIFTWCLEIRAIPKKAFLRALVDYTSDSAEKRRLQELCSKQGAADYSRFVRDACACLLDLLLAFPSCQPPLSLLLEHLPKLQPRPYSCASSSLFHPGKLHFVFNIVEFLSTATTEVLRKGVCTGWLALLVASVLQPNIHASHEDSGKALAPKISISPRTTNSFHLPDDPSIPIIMVGPGTGIAPFIGFLQHREKLQEQHPDGNFGAMWLFFGCRHKDRDYLFRKELRHFLKHGILTHLKVSFSRDAPVGEEEAPAKYVQDNIQLHGQQVARILLQENGHIYVCGDAKNMAKDVHDALVQIISKEVGVEKLEAMKTLATLKEEKRYLQDIWS
notes: Methionine synthase reductase (MTRR), human, full length; purified by the same protocol as ΔCMTRR; source: E. coli BL21(DE3), purified (Glutathione Sepharose 4B, thrombin cleavage, size exclusion chromatography); not shown: GST, N-terminal, cleaved
As to B1, the binding result in experiment [1] and in experiment [2] was “binds” throughout.
